The values below come from patent US20180155451A1 (published 2018).

Experiment [1] concerns the target T1, FcγRIIb (human, UniProt P31994 43-217).
T1 construct: extracellular domain; for crystallography expressed with Kifunesine and trimmed with Endo F1; also called FcgRIIb; FcgR2b; not shown: His tag attached to the C terminus
T1 sequence (looked up): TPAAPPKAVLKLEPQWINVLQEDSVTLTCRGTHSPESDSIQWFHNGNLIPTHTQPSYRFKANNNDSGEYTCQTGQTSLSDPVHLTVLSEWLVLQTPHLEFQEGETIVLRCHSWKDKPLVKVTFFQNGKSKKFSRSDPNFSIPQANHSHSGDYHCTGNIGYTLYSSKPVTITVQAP
The experiment is described as follows: SPR (Biacore), KD. For orientation: SPR reads the build-up and loss of mass on a sensor chip optically.

Experiment [2] concerns the target T2, FcgRIIaR (human, UniProt P12318 34-217).
T2 construct: extracellular domain; R131 allotype; also called FcγRIIa R; FcgRIIa type R; not shown: C-terminal His tag
T2 sequence (looked up): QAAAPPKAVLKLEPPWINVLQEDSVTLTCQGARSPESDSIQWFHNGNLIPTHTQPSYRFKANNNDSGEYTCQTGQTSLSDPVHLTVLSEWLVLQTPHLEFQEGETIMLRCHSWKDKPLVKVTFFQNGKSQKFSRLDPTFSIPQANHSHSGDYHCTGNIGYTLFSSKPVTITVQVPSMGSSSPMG
Nature of the experiment: SPR (Biacore), antibody captured on chip, FcgR as analyte. Here is the method: (§1) The variants described above were assessed for their binding to FcγR according to the method described in Reference Example 8.
(§2) Analysis of interaction between obj ective antibody and the FcγR was carried out using Biacore T100 (GE Healthcare), Biacore T200, Biacore A100, and Biacore 4000. HBS-EP+ (GE Healthcare) was used as the running buffer, and the measurement temperature was set to 25° C. Chips produced by immobilizing the antigen peptide by the amine coupling method to a Series S sensor Chip CM5 (GE Healthcare), chips produced by allowing preliminarily biotinylated antigen peptides to interact with and immobilize onto a Series S Sensor Chip SA (certified) (GE Healthcare), chips produced by immobilizing Protein L (ACTIGEN, BioVision) to Series S Sencor Chip CM5 (GE Healthcare), or chips produced by immobilizing Protein A/G (Thermo Scientific) to Series S Sencor Chip CM5 (GE Healthcare) were used. Antibodies of interest were captured onto these chips, and allowed to interact to each FcγR diluted with running buffer. To regenerate and repeatedly use the chip, the antibodies captured onto the chip were washed off by reacting 10 mM glycine-HCl, pH 1.5.

For experiment [3], the target named is T3, FcgRIIaH (human, UniProt P12318 34-217).
T3 construct: extracellular domain; H131 allotype; also called FcγRIIa H; FcgRIIa type H; not shown: C-terminal His tag
T3 sequence (looked up): T2 sequence (looked up) with R134H
The description is as above. The procedure:
as §1, §2

The target in experiment [4] is T4, FcgRIIb (human, UniProt P31994 43-217).
T4 construct: extracellular domain; also called FcγRIIb; CD32B; not shown: C-terminal His tag
T4 sequence (looked up): T1 sequence (looked up)
The description is as above. Here is the method: as §1, §2

In experiment [5] the target is T5, FcgRIIIaF (human, UniProt P08637 17-208).
T5 construct: extracellular domain; F158 allotype; also called FcγRIIIa F; not shown: C-terminal His tag
T5 sequence (P08637 17-208): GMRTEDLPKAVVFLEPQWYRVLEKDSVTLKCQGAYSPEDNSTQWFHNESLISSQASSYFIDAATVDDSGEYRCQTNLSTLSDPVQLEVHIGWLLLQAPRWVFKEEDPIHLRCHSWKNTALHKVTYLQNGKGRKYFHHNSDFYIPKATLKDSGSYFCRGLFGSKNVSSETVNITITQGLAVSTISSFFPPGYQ
The description is as above. Here is the method:
as §1, §2

Experiment [6] deals with T6, FcgRIIIaV (human, UniProt P08637 17-208).
T6 construct: extracellular domain; V158 allotype; also called FcγRIIIa V; not shown: C-terminal His tag
T6 sequence (P08637 17-208 F176V limits assumed): as the sequence (P08637 17-208) above, with F160V counted along it
The description is as above. The procedure:
as §1, §2

Experiment [7] concerns the target T2, FcgRIIaR. The experiment is described as follows: SPR (Biacore); KD of H240-Kn120/H240-Hl068/L73-k0 divided by KD of the sample. The procedure:
as §1, §2

The target of experiment [8] is T3, FcgRIIaH. The experiment is described as above. The procedure: as §1, §2
For experiment [9], the target named is T4, FcgRIIb. The description is as above. The procedure:
as §1, §2

Experiment [10] addresses T5, FcgRIIIaF. Described as above. Here is the method:
as §1, §2

The target of experiment [11] is T6, FcgRIIIaV. The description is as above. Here is the method: as §1, §2
Experiment [12] has as its target T7, FcgRIa (human, UniProt P12314 16-292).
T7 construct: extracellular domain; also called FcγRIa; FcγRI; not shown: C-terminal His tag
Nature of the experiment: SPR (Biacore 4000), antibody captured on chip, FcgR as analyte; kd below the limit 5e-5 /s. The procedure:
as §1, §2

In experiment [13] the target is T8, FcγRIIIa (human, UniProt P08637 17-208).
T8 construct: extracellular domain; The protein is soluble, His-tagged, and was expressed in FreeStyle293 cells; also called FcgRIIIa; CD16A; not shown: His tag attached to the C terminus
T8 sequence (P08637 17-208): as the sequence (P08637 17-208) above
The experiment is described as follows: SPR (Biacore T100); antibody captured on an antigen peptide chip, FcγRIIIa as analyte; 1:1 Langmuir kinetic fit. Here is the method: (§3) Then, K334G was also assessed in the same manner. GpH7-TA40 (SEQ ID NO: 47) resulting from the introduction of K334G into GpH7-TA7 was constructed, and expressed and prepared in combination with GpH7-B78 according to the method described in Reference Example 1. Furthermore, GpH7-TA50 (SEQ ID NO: 48) resulting from the introduction of K334G into GpH7-B78 was constructed, and expressed and prepared in combination with GpH7-TA7 according to the method described in Reference Example 1. To assess the effect of combinations with K334G, the prepared antibodies were compared for the FcγRIIIa binding according to the method described in Reference Example 2 (Table 18).
(§4) Analysis of interaction between objective antibody and the FcγR was carried out using Biacore T100 (GE Healthcare). HBS-EP+ (GE Healthcare) was used as the running buffer, and the measurement temperature was set to 25° C. Chips produced by immobilizing the antigen peptide by the amine coupling method to a Series S Sencor Chip CM5 (GE Healthcare), or alternatively, chips produced by allowing preliminarily biotinylated antigen peptides to interact with and immobilize onto a Series S Sensor Chip SA (certified) (GE Healthcare) were used. Antibodies of interest were captured onto an antigen peptide-immobilized chip, and allowed to interact to each FcγR diluted with running buffer. To regenerate and repeatedly use the chip, the antibodies captured on the chip were washed off by reacting 10 mM glycine-HCl, pH 1.5.

Experiment [14] has as its target T8, FcγRIIIa. The experiment is described as follows: SPR (Biacore); KD of GpH7-TA7/GpH7-B78/GpL16-k0 for FcγRIIIa divided by the KD of this antibody (the reference itself). The procedure: as §3
as §4, with “To regenerate and repeatedly use the chip, the antibodies captured on the chip were washed off by reacting 10 mM glycine-HCl, pH 1.5.” left out

Changes are numbered by the printed parent chain. Bounds are passed on as bounds.

In general, Kd refers to the free concentration of one partner at which half of the binding sites on the other are occupied at equilibrium, for simple one-to-one binding.

T7 sequence (P12314 16-292): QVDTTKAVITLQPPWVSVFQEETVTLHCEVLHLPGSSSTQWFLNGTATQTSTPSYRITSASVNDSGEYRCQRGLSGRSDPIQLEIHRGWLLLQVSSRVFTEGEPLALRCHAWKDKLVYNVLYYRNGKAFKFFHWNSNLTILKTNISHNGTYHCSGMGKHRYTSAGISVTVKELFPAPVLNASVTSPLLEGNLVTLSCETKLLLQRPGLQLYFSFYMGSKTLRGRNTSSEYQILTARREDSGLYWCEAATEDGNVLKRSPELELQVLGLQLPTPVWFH

B1: H240-Kn120/H240-Hl068/L73-k0 (antibody, human IgG1, kappa)
heavy 1: QDQLVQSGAEVKKPGASVKVSCKASGFNIKDTYIQWVRQAPGQGLEWMGRIDPLRKQTKYREKFEGRVTITADTSTNTAYMELSSLRSEDTAVYYCVRSGREFDYWGQGTLVTVSSASTKGPSVFPLAPSSKSTSGGTAALGCLVKDYFPEPVTVSWNSGALTSGVHTFPAVLQSSGLYSLSSVVTVPSSSLGTQTYICNVNHKPSNTKVDKKVEPKSCDKTHTCPPCPAPEYYWGPMVFLFPPKPKDTLMISRTPEVTCVVVDVSDEDPEVKFNWYVDGVEVHNAKTKPREEQYNATYRVVSVLTVLHQDWLNGKEYKCKVSNKDLPAPIEKTISKAKGQPREPQVCTLPPSRDELTKNQVSLWCLVKGFYPSDIAVEWESNGQPENNYKTTPPVLDSDGSFFLYSKLTVDKSRWQQGNVFSCSVMHEALHNHYTQKSLSLSP
heavy 2: QDQLVQSGAEVKKPGASVKVSCKASGFNIKDTYIQWVRQAPGQGLEWMGRIDPLRKQTKYREKFEGRVTITADTSTNTAYMELSSLRSEDTAVYYCVRSGREFDYWGQGTLVTVSSASTKGPSVFPLAPSSKSTSGGTAALGCLVKDYFPEPVTVSWNSGALTSGVHTFPAVLQSSGLYSLSSVVTVPSSSLGTQTYICNVNHKPSNTKVDKKVEPKSCDKTHTCPPCPAPELLGGPSVFLFPPKPKDTLMISRTPEVTCVVVDVSHEEPEVKFNWYVDGVEVHNAKTKPREEQYNSTYRVVSVLTVLHQDWLNGKEYKCKVSNDALPKPIEETISKAKGQPREPQVYTLPPSRCELTKNQVSLSCAVKGFYPSDIAVEWESNGQPENNYKTTPPVLDSDGSFFLVSKLTVDKSRWQQGNVFSCSVMHEALHNHYTQKSLSLSP
light: DIQMTQSPSSLSASVGDRVTITCRASQDIHKYIAWYQQKPGQAPRLLIQYTSTLQPGVPSRFSGSGSGTDYTFTISSLQPEDIATYYCLQYEQLRTFGGGTKVEIKRTVAAPSVFIFPPSDEQLKSGTASVVCLLNNFYPREAKVQWKVDNALQSGNSQESVTEQDSKDSTYSLSSTLTLSKADYEKHKVYACEVTHQGLSSPVTKSFNRGEC
notes: S239M added to H240-Kn067
As for B1, in experiment [1], the “fold increase of binding activity over native IgG1” value is around 50 fold.

B2: H240-Kn193/H240-Hl204/L73-k0 (antibody, human IgG1, kappa)
heavy 1: B1 heavy 1 with Y234N, E293R
heavy 2: B1 heavy 2 with G235T, I331E
light: B1 light
notes: Heterodimerized anti-epiregulin antibody
With B2, the Kd was 16 nM in experiment [2]; 35 nM in experiment [3]; 290 nM in [4]; 11 nM in experiment [5]; 1.8 nM in [6]; below 0.024 nM in [12]. For the same molecule, the “Relative KD” value in [7] turned out to be 1.3; in [8], 1.2; in experiment [9] it was 0.5; in experiment [10], 0.2; in [11], 0.2.

B3: H240-Kn192/H240-Hl204/L73-k0 (antibody, human IgG1, kappa)
heavy 1: B1 heavy 1 with Y234N, E293K
heavy 2: B1 heavy 2 with G235T, I331E
light: B1 light
notes: as for B2
Consider B3, for which the Kd is 19 nM in [2]; 42 nM in [3]; 290 nM in [4]; 12 nM in experiment [5]; 2.2 nM in experiment [6]; below 0.019 nM in experiment [12]. The “Relative KD” value came to 1.1 in [7]; 1 in [8]; 0.5 in [9]; 0.2 in experiment [10]; 0.2 in [11].

B4: GpH7-TA7/GpH7-B78/GpL16-k0 (antibody, human IgG1, kappa)
heavy 1: QVQLVQSGAEVKKPGASVTVSCKASGYTFTDYEMHWIRQPPGEGLEWIGAIDPKTGDTAYSESFQDRVTLTADKSTSTAYMELSSLTSEDTAVYYCTRFYSYTYWGQGTLVTVSSASTKGPSVFPLAPSSKSTSGGTAALGCLVKDYFPEPVTVSWNSGALTSGVHTFPAVLQSSGLYSLSSVVTVPSSSLGTQTYICNVNHKPSNTKVDKKVEPKSCDKTHTCPPCPAPEYLWGPSVFLFPPKPKDTLMISRTPEVTCVVVDVSHEDPEVKFNWYVDGVEVHNAKTKPREEQYNATYRVVSVLTVLHQDWLNGKEYKCKVSNKALPAPIEKTISKAKGQPREPQVYTLPPSRKELTKNQVSLTCLVKGFYPSDIAVEWESNGQPENNYKTTPPVLDSDGSFFLYSKLTVDKSRWQQGNVFSCSVMHEALHNRYTQKSLSLSP
heavy 2: B4 heavy 1 with Y232L, W234G, S237D, A296S, A328L, I330E, K354D, R433H, K437E
light: DIVMTQSPLSLPVTPGEPASISCQASESLVHSNRNTYLHWYLQKPGQSPQLLIYKVSNRFSGVPDRFSGSGSGTDFTLKISRVEAEDVGVYYCSQNTHVPPTFGQGTKVEIERTVAAPSVFIFPPSDEQLKSGTASVVCLLNNFYPREAKVQWKVDNALQSGNSQESVTEQDSKDSTYSLSSTLTLSKADYEKHKVYACEVTHQGLSSPVTKSFNRGEC
notes: Heterodimerized anti-glypican-3 IgG1 antibody with two different H chains and a common L chain; also called TA7/B78
With B4, in [13], the dissociation constant (Kd) stood at 4.1 nM. Further, in experiment [14], the KD ratio is 1.
